The source of these data is US20130195871A1 (AbbVie / Abbott, published 2013).

Broadly, the Kd is the equilibrium constant for the complex coming apart. As a reminder, the koff is the first-order rate constant of dissociation. A word on the kon: it is the rate constant with which the complex forms.

In experiment [1] the target is T1, Recombinant Human MSP Receptor ECD-His tag (human, UniProt Q04912 25-957).
T1 construct: extracellular domain; bought reagent; also called RON
The experiment can be described thus: SPR (Biacore). In general terms: SPR reads the build-up and loss of mass on a sensor chip optically.
Method: (§1) The BIACORE assay (Biacore, Inc, Piscataway, N.J.) determined the affinity of antibodies or DVD-Ig proteins with kinetic measurements of on-rate and off-rate constants. Binding of antibodies or DVD-Ig proteins to a target antigen (for example, a purified recombinant target antigen) was determined by surface plasmon resonance-based measurements with a Biacore® 1000 or 3000 instrument (Biacore AB, Uppsala. Sweden) using running HBS-EP (10 mM HEPES [pH 7.4], 150 mM NaCl, 3 mM EDTA, and 0.005% surfactant P20) at 25° C. […] For example, approximately 5000 RU of goat anti-mouse IgG, (Fcγ), fragment specific polyclonal antibody (Pierce Biotechnology Inc, Rockford, Ill.) diluted in 10 mM sodium acetate (pH 4.5) was directly immobilized across a CM5 research grade biosensor chip using a standard amine coupling kit according to manufacturer's instructions and procedures at 25 μg/ml. Unreacted moieties on the biosensor surface were blocked with ethanolamine. Modified carboxymethyl dextran surface in flowcell 2 and 4 was used as a reaction surface. Unmodified carboxymethyl dextran without goat anti-mouse IgG in flow cell 1 and 3 was used as the reference surface. For kinetic analysis, rate equations derived from the 1:1 Langmuir binding model were fitted simultaneously to association and dissociation phases of all eight injections (using global fit analysis) with the use of Biaevaluation 4.0.1 software. Purified antibodies or DVD-Ig proteins were diluted in HEPES-buffered saline for capture across goat anti-mouse IgG specific reaction surfaces. Antibodies or DVD-Ig proteins to be captured as a ligand (25 μg/ml) were injected over reaction matrices at a flow rate of 5 μl/minute. The association and dissociation rate constants, kₒₙ (M⁻¹s⁻¹) and koff (s⁻¹) were determined under a continuous flow rate of 25 μl/minute. Rate constants were derived by making kinetic binding measurements at different antigen concentrations ranging from 10-200 nM. The equilibrium dissociation constant (M) of the reaction between antibodies or DVD-Ig proteins and the target antigen was then calculated from the kinetic rate constants by the following formula: KD=koff/kₒₙ. Binding was recorded as a function of time and kinetic rate constants were calculated.

The target in experiment [2] is T2, Recombinant Human ErbB3/FC Chimera-His tag (human, UniProt P21860 20-643).
T2 construct: bought reagent
As to the kind of experiment: SPR (Biacore), N-terminal VD.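 Note: capture of antibodies or DVD-Ig proteins on an anti-mouse IgG chip surface, recombinant antigen injected at 10–200 nM in HBS-EP running buffer at 25 °C.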
Method: as §1

Another experiment addresses T3, Recombinant Human IGF1R (human, UniProt P08069 31-932).
T3 construct: bought reagent
As to the kind of experiment: SPR (Biacore), N-terminal VD.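 Note: capture of antibodies or DVD-Ig proteins on an anti-mouse IgG chip surface, recombinant antigen injected at 10–200 nM in HBS-EP running buffer at 25 °C.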

For experiment [3], the target named is T1, Recombinant Human MSP Receptor ECD-His …. As to the kind of experiment: SPR (Biacore), N-terminal VD.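 Note: capture of antibodies or DVD-Ig proteins on an anti-mouse IgG chip surface, recombinant antigen injected at 10–200 nM in HBS-EP running buffer at 25 °C.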
Method: as §1

Method for Recombinant Human IGF1R: as §1

B1: DVD2209 (bispecific antibody)
VH: QVQLQESGPGLVKPSEILSLTCTVSGGSISSHYWSWVRQPPGKGLEWIGYIYYSGSTNYNPSLKSRVTISVDTSKNQFSLNLSSVTAADTAVYYCARIPNYYDRSGYYPGYWYFDLWGRGTLVTVSSASTKGPEVQLVQSGGGLVKPGGSLRLSCAASGFTFSSYAMHWVRQAPGKGLEWVAVISYDGSNKYYADSVKGRFTISRDNSKNTLYLQMNSLRAEDTAVYYCARFSGWPNNYYYYGMDVWGQGTTVTVSS
VL: QAVLTQPSSLSAPPGASASLTCTLRSGFNVDSYRISWYQQKPGSPPQYLLRYKSDSDKQQGSGVPSRFSGSKDASANAGILLISGLQSEDEADYYCMIWHSSAWVFGGGTKLTVLRTVAAPDVVMTQSPLSLPVTPGEPASISCRSSQSLLHSNGFNYVDWYLQKPGQSPHLLIYFGSYRASGVPDRFSGSGSGTDFTLKISRVEAEDVGVYYCMQALQTPPWTFGQGTKVEIR
notes: DVD-Ig, outer AB034 / inner AB005
Regarding B1, in experiment [1], the Kd worked out at 23 nM.

B2: DVD2211 (bispecific antibody)
VH: B1 VH
VL: QAVLTQPSSLSAPPGASASLTCTLRSGFNVDSYRISWYQQKPGSPPQYLLRYKSDSDKQQGSGVPSRFSGSKDASANAGILLISGLQSEDEADYYCMIWHSSAWVFGGGTKLTVLRTVAAPSVFIFPPDVVMTQSPLSLPVTPGEPASISCRSSQSLLHSNGFNYVDWYLQKPGQSPHLLIYFGSYRASGVPDRFSGSGSGTDFTLKISRVEAEDVGVYYCMQALQTPPWTFGQGTKVEIR
notes: as for B1
B2: in experiment [1], the Kd worked out at 15 nM.

B3: DVD2281 (bispecific antibody)
VH: EVQLLESGGGLVQPGGSLRLSCAASGFTFSHYVMAWVRQAPGKGLEWVSSISSSGGWTLYADSVKGRFTISRDNSKNTLYLQMNSLRAEDTAVYYCTRGLKMATIFDYWGQGTLVTVSSASTKGPEVQLVQSGAEVKKPGSSVKVSCKASGGTFSSYAISWVRQAPGQGLEWMGGIIPIFGTANYAQKFQGRVTITADKSTSTAYMELSSLRSEDTAVYYCARAPLRFLEWSTQDHYYYYYMDVWGKGTTVTVSS
VL: QSALTQPASVSGSPGQSITISCTGTSSDVGSYNVVSWYQQHPGKAPKLIIYEVSQRPSGVSNRFSGSKSGNTASLTISGLQTEDEADYYCCSYAGSSIFVIFGGGTKVTVLGQPKAAPSSELTQDPAVSVALGQTVRITCQGDSLRSYYATWYQQKPGQAPILVIYGENKRPSGIPDRFSGSSSGNTASLTITGAQAEDEADYYCKSRDGSGQHLVFGGGTKLTVL
notes: DVD-Ig, outer AB116 / inner AB075
On to B3, for which, in experiment [2], the Kd is 6.1 nM, the koff is 0.00024 s⁻¹ and the kon came out at 40000 M⁻¹ s⁻¹.

B4: DVD2282 (bispecific antibody)
VH: EVQLVQSGAEVKKPGSSVKVSCKASGGTFSSYAISWVRQAPGQGLEWMGGIIPIFGTANYAQKFQGRVTITADKSTSTAYMELSSLRSEDTAVYYCARAPLRFLEWSTQDHYYYYYMDVWGKGTTVTVSSASTKGPQVQLQQWGAGLLKPSETLSLTCAVYGGSFSGYYWSWIRQPPGKGLEWIGEINHSGSTNYNPSLKSRVTISVETSKNQFSLKLSSVTAADTAVYYCARDKWTWYFDLWGRGTLVTVSS
VL: SSELTQDPAVSVALGQTVRITCQGDSLRSYYATWYQQKPGQAPILVIYGENKRPSGIPDRFSGSSSGNTASLTITGAQAEDEADYYCKSRDGSGQHLVFGGGTKLTVLGQPKAAPDIEMTQSPDSLAVSLGERATINCRSSQSVLYSSSNRNYLAWYQQNPGQPPKLLIYWASTRESGVPDRFSGSGSGTDFTLTISSLQAEDVAVYYCQQYYSTPRTFGQGTKVEIK
notes: DVD-Ig, outer AB075 / inner AB062
As to B4, in the experiment with Recombinant Human IGF1R, the Kd worked out at 5.2 nM, the koff stood at 0.00013 s⁻¹ and the kon came out at 25000 M⁻¹ s⁻¹.

B5: DVD2316 (bispecific antibody)
VH: EVQLVQSGGGLVKPGGSLRLSCAASGFTFSSYAMHWVRQAPGKGLEWVAVISYDGSNKYYADSVKGRFTISRDNSKNTLYLQMNSLRAEDTAVYYCARFSGWPNNYYYYGMDVWGQGTTVTVSSASTKGPEVQLVESGGGLVQPGGSLRLSCAASGFTFTDYTMDWVRQAPGKGLEWVADVNPNSGGSIYNQRFKGRFTLSVDRSKNTLYLQMNSLRAEDTAVYYCARNLGPSFYFDYWGQGTLVTVSS
VL: DVVMTQSPLSLPVTPGEPASISCRSSQSLLHSNGFNYVDWYLQKPGQSPHLLIYFGSYRASGVPDRFSGSGSGTDFTLKISRVEAEDVGVYYCMQALQTPPWTFGQGTKVEIRRTVAAPDIQMTQSPSSLSASVGDRVTITCKASQDVSIGVAWYQQKPGKAPKLLIYSASYRYTGVPSRFSGSGSGTDFTLTISSLQPEDFATYYCQQYYIYPYTFGQGTKVEIK
notes: DVD-Ig, outer AB005 / inner AB080
Turning to B5, in experiment [3], the Kd is 19 nM, the koff is 0.00089 s⁻¹ and the on-rate (kon) is 46000 M⁻¹ s⁻¹.

B6: DVD2208 (bispecific antibody)
VH: EVQLVQSGGGLVKPGGSLRLSCAASGFTFSSYAMHWVRQAPGKGLEWVAVISYDGSNKYYADSVKGRFTISRDNSKNTLYLQMNSLRAEDTAVYYCARFSGWPNNYYYYGMDVWGQGTTVTVSSASTKGPQVQLQESGPGLVKPSEILSLTCTVSGGSISSHYWSWVRQPPGKGLEWIGYIYYSGSTNYNPSLKSRVTISVDTSKNQFSLNLSSVTAADTAVYYCARIPNYYDRSGYYPGYWYFDLWGRGTLVTVSS
VL: DVVMTQSPLSLPVTPGEPASISCRSSQSLLHSNGFNYVDWYLQKPGQSPHLLIYFGSYRASGVPDRFSGSGSGTDFTLKISRVEAEDVGVYYCMQALQTPPWTFGQGTKVEIRRTVAAPQAVLTQPSSLSAPPGASASLTCTLRSGFNVDSYRISWYQQKPGSPPQYLLRYKSDSDKQQGSGVPSRFSGSKDASANAGILLISGLQSEDEADYYCMIWHSSAWVFGGGTKLTVL
notes: DVD-Ig, outer AB005 / inner AB034
Consider B6, for which, in experiment [1], the Kd was found to be 16 nM, the koff was determined as 0.0013 s⁻¹ and the kon worked out at 83000 M⁻¹ s⁻¹.

B7: DVD2210 (bispecific antibody)
VH: B6 VH
VL: DVVMTQSPLSLPVTPGEPASISCRSSQSLLHSNGFNYVDWYLQKPGQSPHLLIYFGSYRASGVPDRFSGSGSGTDFTLKISRVEAEDVGVYYCMQALQTPPWTFGQGTKVEIRRTVAAPSVFIFPPQAVLTQPSSLSAPPGASASLTCTLRSGFNVDSYRISWYQQKPGSPPQYLLRYKSDSDKQQGSGVPSRFSGSKDASANAGILLISGLQSEDEADYYCMIWHSSAWVFGGGTKLTVL
notes: as for B6
Turning to B7, in experiment [1], the Kd is 15 nM, the koff was 0.0017 s⁻¹ and the kon stood at 110000 M⁻¹ s⁻¹.

B8: DVD2212 (bispecific antibody)
VH: EVQLVQSGGGLVKPGGSLRLSCAASGFTFSSYAMHWVRQAPGKGLEWVAVISYDGSNKYYADSVKGRFTISRDNSKNTLYLQMNSLRAEDTAVYYCARFSGWPNNYYYYGMDVWGQGTTVTVSSASTKGPSVFPLAPQVQLQESGPGLVKPSEILSLTCTVSGGSISSHYWSWVRQPPGKGLEWIGYIYYSGSTNYNPSLKSRVTISVDTSKNQFSLNLSSVTAADTAVYYCARIPNYYDRSGYYPGYWYFDLWGRGTLVTVSS
VL: B6 VL
notes: as for B6
For the molecule B8, in experiment [1], the Kd worked out at 16 nM, the koff stood at 0.0012 s⁻¹ and the kon worked out at 74000 M⁻¹ s⁻¹.

B9: DVD2288 (bispecific antibody)
VH: EVQLVQSGAEVKKPGSSVKVSCKASGGTFSSYAISWVRQAPGQGLEWMGGIIPIFGTANYAQKFQGRVTITADKSTSTAYMELSSLRSEDTAVYYCARAPLRFLEWSTQDHYYYYYMDVWGKGTTVTVSSASTKGPEVQLVESGGGLVQPGGSLRLSCAASGFTFTDYTMDWVRQAPGKGLEWVADVNPNSGGSIYNQRFKGRFTLSVDRSKNTLYLQMNSLRAEDTAVYYCARNLGPSFYFDYWGQGTLVTVSS
VL: SSELTQDPAVSVALGQTVRITCQGDSLRSYYATWYQQKPGQAPILVIYGENKRPSGIPDRFSGSSSGNTASLTITGAQAEDEADYYCKSRDGSGQHLVFGGGTKLTVLGQPKAAPDIQMTQSPSSLSASVGDRVTITCKASQDVSIGVAWYQQKPGKAPKLLIYSASYRYTGVPSRFSGSGSGTDFTLTISSLQPEDFATYYCQQYYIYPYTFGQGTKVEIK
notes: DVD-Ig, outer AB075 / inner AB080
Regarding B9, in the experiment with Recombinant Human IGF1R, the Kd is 12 nM, the koff turned out to be 0.00026 s⁻¹ and the kon is 22000 M⁻¹ s⁻¹.

B10: DVD2278 (bispecific antibody)
VH: EVQLVQSGAEVKKPGSSVKVSCKASGGTFSSYAISWVRQAPGQGLEWMGGIIPIFGTANYAQKFQGRVTITADKSTSTAYMELSSLRSEDTAVYYCARAPLRFLEWSTQDHYYYYYMDVWGKGTTVTVSSASTKGPEVQLVESGGGLVQPGGSLRLSCAASGFTFSIYSMNWVRQAPGKGLEWVSYISSSSSTIYYADSVKGRFTISRDNAKNSLYLQMNSLRDEDTAVYYCARDRGDFDAFDIWGQGTMVTVSS
VL: SSELTQDPAVSVALGQTVRITCQGDSLRSYYATWYQQKPGQAPILVIYGENKRPSGIPDRFSGSSSGNTASLTITGAQAEDEADYYCKSRDGSGQHLVFGGGTKLTVLGQPKAAPDIQMTQSPSSLSASVGDRVTITCQASQDITNYLNWYQQKPGKAPKLLIYDASNLETGVPSRFSGSGSGTDFTFTISSLQPEDIATYNCQQCENFPITFGQGTRLEIK
notes: DVD-Ig, outer AB075 / inner AB063
For the molecule B10, in the experiment with Recombinant Human IGF1R, the dissociation constant (Kd) is 8.6 nM, the koff was determined as 0.00021 s⁻¹ and the kon amounted to 25000 M⁻¹ s⁻¹.
